pKd: −log10 of the molar value.

Assay [1] addresses HLA-A*02:01. The assay is described as follows: IEDB peptide-MHC binding, purified MHC/competitive/radioactivity; filed as Kd, often an IC50 or EC50 that approximates it; ≥ and ≤ were set here for values at or beyond the usual limits of such assays.
The next assay has as its target HLA-A*01:01. Kind of assay: IEDB peptide-MHC binding, purified MHC/direct/fluorescence; filed as Kd, often an IC50 or EC50 that approximates it; ≥ and ≤ were set here for values at or beyond the usual limits of such assays.
In assay [2] the target is HLA-A*02:01. Described as above.
Assay [3] addresses HLA-A*03:01. The assay is described as above.
In another assay the target is HLA-A*11:01. The assay is described as above. To be noted: source organism: Edwardsiella tarda.
Assay [4] addresses HLA-A*26:01. The description is as above.
Assay [5] has as its target HLA-A*31:01. The description is as above. To be noted: source organism: Edwardsiella tarda.
The next assay deals with HLA-A*69:01. Described as above.
The target in a further assay is HLA-B*07:02. The assay is described as above.
For assay [6], the target named is HLA-B*08:01. The assay is described as above.
Assay [7] addresses HLA-B*15:01. The description is as above.
The next assay has as its target HLA-B*27:05. Described as above.
The target of a further assay is HLA-B*40:01. The assay is described as above.
For a further assay, the target named is HLA-B*58:01. Described as above.
The target of assay [8] is HLA-B*46:01. The description is as above.
Assay [9] deals with HLA-B*08:01. The assay is described as follows: IEDB peptide-MHC binding, purified MHC/competitive/radioactivity; filed as Kd, often an IC50 or EC50 that approximates it; ≥ and ≤ were set here for values at or beyond the usual limits of such assays.
Assay [10] deals with HLA-B*15:01. Described as above. To be noted: source organism: Vaccinia virus WR.
Assay [11] concerns the target HLA-A*02:01. Kind of assay: IEDB peptide-MHC binding, purified MHC/competitive/fluorescence; filed as Kd, often an IC50 or EC50 that approximates it; ≥ and ≤ were set here for values at or beyond the usual limits of such assays. To be noted: source organism: Escherichia coli.
Assay [12] has as its target HLA-A*26:01. The description is as above. The settings on record: source organism: Escherichia coli.
A further assay concerns the target HLA-A*02:02. The assay is described as follows: IEDB peptide-MHC binding, purified MHC/competitive/radioactivity; filed as Kd, often an IC50 or EC50 that approximates it; ≥ and ≤ were set here for values at or beyond the usual limits of such assays.
In a further assay the target is HLA-A*02:03. Described as above.
For the next assay, the target named is HLA-A*02:06. The description is as above.
The target in a further assay is HLA-A*68:02. Described as above.
In another assay the target is HLA-B*51:01. The assay is described as follows: IEDB peptide-MHC binding, purified MHC/competitive/fluorescence; filed as Kd, often an IC50 or EC50 that approximates it; ≥ and ≤ were set here for values at or beyond the usual limits of such assays. The settings on record: source organism: Campylobacter jejuni subsp. jejuni NCTC 11168 = ATCC 700819.
Assay [13] deals with HLA-A*03:01. The assay is described as follows: IEDB peptide-MHC binding, purified MHC/competitive/radioactivity; filed as Kd, often an IC50 or EC50 that approximates it; ≥ and ≤ were set here for values at or beyond the usual limits of such assays. To be noted: source organism: Dengue virus 2 Jamaica/1409/1983.
In another assay the target is HLA-A*30:01. Described as above. To be noted: source organism: Dengue virus 2 Jamaica/1409/1983.
The target in a further assay is HLA-A*23:01. The description is as above. The settings on record: source organism: Dengue virus 1 Brazil/97-11/1997.
A further assay concerns the target HLA-A*24:02. Described as above. To be noted: source organism: Dengue virus 1 Brazil/97-11/1997.
The target of assay [14] is HLA-B*46:01. Kind of assay: IEDB peptide-MHC binding, purified MHC/competitive/fluorescence; filed as Kd, often an IC50 or EC50 that approximates it; ≥ and ≤ were set here for values at or beyond the usual limits of such assays.
For assay [15], the target named is HLA-A*31:01. The assay is described as follows: IEDB peptide-MHC binding, purified MHC/competitive/radioactivity; filed as Kd, often an IC50 or EC50 that approximates it; ≥ and ≤ were set here for values at or beyond the usual limits of such assays. The settings on record: source organism: SARS coronavirus Tor2.
A further assay addresses HLA-A*33:01. The description is as above. To be noted: source organism: SARS coronavirus Tor2.
Another assay deals with HLA-A*68:01. The description is as above. To be noted: source organism: SARS coronavirus Tor2.
Setting [16] is: source organism: Edwardsiella tarda.
Where [17] appears, read: source organism: Corynebacterium glutamicum.
Where [18] appears, read: source organism: Vaccinia virus WR.
[19] abbreviates: source organism: Dengue virus 3 Martinique/1243/1999.
[20] abbreviates: source organism: Trypanosoma cruzi.
[21] abbreviates: source organism: Dengue virus 4 Philippines/H241/1956.
Where [22] appears, read: source organism: Dengue virus 1 Brazil/97-11/1997.
The mark [23] stands for this setting: source organism: Mammarenavirus lassaense.
[24] abbreviates: source organism: Dengue virus 2 Jamaica/1409/1983.
Where [25] appears, read: source organism: Triticum aestivum.
The mark [26] stands for this setting: source organism: Salmonella enterica subsp. enterica serovar Typhimurium.

On to AAGLQDCT, for which the pKd with HLA-A*02:01 [1] (source organism: Hepatitis C virus (isolate 1)) is at most 4.30.

In the case of AFGLFWLVW, the pKd in the assay with HLA-A*01:01 (setting [16]), with HLA-A*02:01 [2] (setting [16]), with HLA-A*03:01 [3] (setting [16]), in the assay with HLA-A*11:01, with HLA-A*26:01 [4] (setting [16]) and with HLA-A*31:01 [5] was at most 4.70 each time. For the same sequence, the pKd with HLA-A*69:01 (setting [16]) is at most 4.70; with HLA-B*07:02 (setting [16]) it was at most 4.70; with HLA-B*08:01 [6] (setting [16]) it was at most 4.70; with HLA-B*15:01 [7] (setting [16]), at most 4.70; in the assay with HLA-B*27:05 (setting [16]), at most 4.70; in the assay with HLA-B*40:01 (source organism: Enterobacter cloacae) it was 4.98. In addition, the pKd with HLA-B*58:01 (setting [16]) was at most 4.70.

For the sequence AQAVMEMTY, the pKd in the assay with HLA-B*46:01 [8] (source organism: Yellow fever virus) was at most 4.70.

Turning to ATFSRPGSL, the pKd with HLA-A*01:01 (setting [17]) was at most 4.70; in the assay with HLA-A*02:01 [2] (setting [17]) it was at most 4.70; with HLA-A*03:01 [3] (setting [17]), at most 4.70; with HLA-A*26:01 [4] (setting [17]) it was at most 4.70; with HLA-A*69:01 (setting [17]), at most 4.70; with HLA-B*07:02 (setting [17]) it was 6.18. Also, the pKd with HLA-B*08:01 [6] (setting [17]) was 4.87; in the assay with HLA-B*15:01 [7] (setting [17]) it was 5.48; with HLA-B*27:05 (setting [17]), at most 4.70; with HLA-B*40:01 (setting [17]), at most 4.70; in the assay with HLA-B*58:01 (setting [17]) it was at most 4.70.

For the sequence EFINKFLEF, the pKd in the assay with HLA-B*08:01 [9] (setting [18]) is 6.43; with HLA-B*15:01 [10], 6.44.

For the sequence ELISSAFKV, the pKd is 7.75 in the assay with HLA-A*02:01 [11] and 5.39 with HLA-A*26:01 [12].

ELKTRYHSI: the pKd with HLA-B*08:01 [9] (setting [18]) was 6.01.

For the sequence ESRKTFVEL, in the assay with HLA-B*08:01 [9] (setting [19]), the pKd is 6.20.

For GLLPLLLLLL, the pKd with HLA-A*02:01 [1] (setting [20]) was 7.18; with HLA-A*02:02 (setting [20]), 7.05; in the assay with HLA-A*02:03 (setting [20]), 7.05; in the assay with HLA-A*02:06 (setting [20]), 7.78; with HLA-A*68:02 (setting [20]), at most 4.55.

Consider ILRNPGFALL, for which the pKd in the assay with HLA-B*08:01 [9] (setting [21]) is 5.06.

For IMNRRKRSV, in the assay with HLA-B*08:01 [9] (setting [22]), the pKd was 8.68.

Regarding IRQMEGEGVL, the pKd with HLA-B*08:01 [9] (setting [19]) is 6.63.

KQFKQDAKY: the pKd was 6.76 with HLA-B*15:01 [7] (setting [23]) and at most 4.70 with HLA-B*46:01 [8] (setting [23]).

With LLGLWGFAAA, the pKd with HLA-A*02:01 [1] (setting [20]) is 7.16; in the assay with HLA-A*02:02 (setting [20]), 7.54; in the assay with HLA-A*02:03 (setting [20]) it was 9.26; with HLA-A*02:06 (setting [20]) it was 7.31; with HLA-A*68:02 (setting [20]), at most 3.90.

For LLGLWGIAAS, the pKd in the assay with HLA-A*02:01 [1] (setting [20]) was 5.60; with HLA-A*02:02 (setting [20]), 5.80; with HLA-A*02:03 (setting [20]), 6.17; with HLA-A*02:06 (setting [20]), 5.04; in the assay with HLA-A*68:02 (setting [20]), at most 3.95.

Turning to LLVLCVTQVL, the pKd with HLA-B*08:01 [9] (source organism: Dengue virus 2 Peru/IQT2913/1996) is 4.89.

Turning to LMYFHRRDL, the pKd with HLA-B*08:01 [9] (setting [24]) was 7.21.

LSILPFFIV gave a pKd in the assay with HLA-B*51:01 of at most 4.70.

For the sequence LSRYVARL, the negative-log Kd (pKd) in the assay with HLA-A*02:01 [1] (source organism: Hepatitis B virus) is at most 4.30.

MLLVLCAGQL: the pKd in the assay with HLA-B*08:01 [9] (setting [21]) was 6.09.

MLRTRVGTK: the pKd in the assay with HLA-A*03:01 [13] was 7.59; with HLA-A*30:01, 6.48; with HLA-B*08:01 [9] (setting [24]), 5.95.

As for MNLYSFTIV, in the assay with HLA-B*08:01 [9] (source organism: Vaccinia virus Copenhagen), the negative logarithm of the Kd (pKd) was 5.74.

For the sequence MPPLRFLGE, the pKd with HLA-B*08:01 [9] (setting [21]) was 5.59.

On to NGKPKTFAI, for which the pKd in the assay with HLA-B*08:01 [9] (setting [18]) is 5.68.

For the sequence RILGAVAKV, the pKd with HLA-A*02:01 [1] (source organism: Homo sapiens) was 7.04.

SLNFMGYVI: in the assay with HLA-A*02:01 [1] (source organism: Hepatitis B virus ayw/France/Tiollais/1979), the negative-log Kd (pKd) was 5.88.

Consider SQVSFQQPL, for which the pKd was 6.59 in the assay with HLA-A*02:01 [1] (setting [25]); 8.35 with HLA-A*02:02 (setting [25]); 6.86 with HLA-A*02:03 (setting [25]); 7.84 with HLA-A*02:06 (setting [25]); 6.69 in the assay with HLA-A*68:02 (setting [25]).

TMDGILKSI: the pKd in the assay with HLA-A*02:01 [1] (source organism: Lassa virus GA391) is at most 4.60.

As to TQLMPFGCLL, in the assay with HLA-A*02:01 [1] (source organism: Homo sapiens), the negative-log Kd (pKd) is 6.59.

On to VFKKRNLTI, for which the pKd with HLA-A*23:01 was 6.70; in the assay with HLA-A*24:02, 6.05; in the assay with HLA-B*08:01 [9] (setting [22]), 7.12.

With VIQLNRKSY, the negative-log Kd (pKd) in the assay with HLA-B*46:01 [8] (source organism: West Nile virus) is at most 4.70.

VQQLTKRFSL: the negative-log Kd (pKd) with HLA-B*08:01 [9] (setting [24]) was 7.56.

For YIFFASFYY, the pKd with HLA-A*02:01 [2] (source organism: SARS-CoV1) was 5.17; in the assay with HLA-A*26:01 [4] (source organism: SARS-CoV1), 6.28; in the assay with HLA-A*69:01 (source organism: SARS-CoV1), 6.13; with HLA-B*15:01 [7] (source organism: SARS-CoV1), 5.43; in the assay with HLA-B*58:01 (source organism: SARS-CoV1), 5.51; with HLA-B*46:01 [14] (source organism: SARS-CoV1), at most 4.70. Besides, the pKd was 6.11 with HLA-A*31:01 [15], 6.19 with HLA-A*33:01 and 8.77 in the assay with HLA-A*68:01.

With YLLMHLVSL, the pKd with HLA-A*02:02 (setting [18]) is 9.76; with HLA-A*02:03 (setting [18]), 8.85; with HLA-A*02:06 (setting [18]) it was 9.60; in the assay with HLA-B*08:01 [9] (setting [18]), 5.94.

On to YNRDKFKAF, for which, in the assay with HLA-B*08:01 [9] (setting [18]), the negative-log Kd (pKd) was 7.69.

Take YQKKNASVY: the pKd is 6.48 with HLA-B*15:01 [7] (setting [26]), 5.30 with HLA-B*27:05 (setting [26]) and 6.53 with HLA-B*46:01 [14] (source organism: Salmonella enterica subsp. enterica serovar Typhi).

As a reminder, the pKd is the negative decadic logarithm of the Kd, by convention in mol/L.

These data come from the Immune Epitope Database (IEDB).
